According to patent US20080050387A1, “Non-Androgen Dependent Roles for Androgen Receptor and Non-Androgen Related Inhibitors of Androgen Receptor” (priority 2003, published 2008):
Where two headings read alike, the source gives them in different places.

Experiments:
AR (ARN, ARDBD, ARLBD) = experiment: GST pull-down assay ARA67 / AR; type: binding, human
Procedure: GST-ARN, GST-ARA67 fusion proteins, and GST control protein were expressed in BL21 (DE3)pLysS bacteria strain (Stratagene) and purified with glutathione-Sepharose beads as instructed by the manufacturer (Amersham Pharmacia). In vitro [^35S]methionine-labeled AR, ARN, AR DBD, AR LBD and ARA67 proteins were generated using TNT-coupled Reticulocyte Lysate Systems (Promega). For in vitro interaction, mixtures of glutathione beads bound GST fusion proteins and 5 μl [^35S]methionine-labeled input proteins in 100 μl interaction buffer (20 mM Tris/pH8.0, 60 mM NaCl, 6 mM MgCl2, 1 mM EDTA, 0.05% Nonidet P-40, 1 mM DTT, 8% glycerol, 1 mM PMSF) were incubated in the presence or absence of 10 μM dihydrotestosterone (DHT) on a rotating disk at 4° C. for 2 h. After washing with NETN buffer (20 mM Tris/pH8.0, 100 mM NaCl, 6 mM MgCl2, 1 mM EDTA, 0.5% Nonidet P-40, 1 mM DTT, 8% glycerol, 1 mM PMSF) four times, the bound proteins were separated on 8-13% SDS-PAGE and visualized by autoradiography.

AR = AR protein level in H1299 cells (Western blot); type: cell-based, human; settings: pSG5-AR and pKH3-ARA67 1 to 6
Procedure: Protein samples collected from the cells were separated on 8% SDS-PAGE and transferred to nitrocellulose membranes. Membranes were blocked with 5% nonfat milk in TBST buffer (150 mM NaCl, 10 mM Tris/pH8.0, and 0.5% Tween-20) at room temperature for 1 h. Then the membranes were immunoblotted with primary antibodies for 2 h at room temperature or overnight at 4° C., followed by incubation with secondary antibodies for 1 h at room temperature. Blots were developed with the AP color developing reagents (Bio-Rad).

ARN = molecular target: T1, ARN (Homo sapiens, UniProt P10275); experiment: Mammalian two-hybrid assay ARA67 / ARN in H1299 cells; type: cell-based; settings: pM-ARA67 and pVP16-ARN, pG5-Luc
T1 construct: The AR has a large N-terminus (ARN); expressed in transfected cells; host or cells: H1299
T1 sequence (P10275 1-559 limits assumed): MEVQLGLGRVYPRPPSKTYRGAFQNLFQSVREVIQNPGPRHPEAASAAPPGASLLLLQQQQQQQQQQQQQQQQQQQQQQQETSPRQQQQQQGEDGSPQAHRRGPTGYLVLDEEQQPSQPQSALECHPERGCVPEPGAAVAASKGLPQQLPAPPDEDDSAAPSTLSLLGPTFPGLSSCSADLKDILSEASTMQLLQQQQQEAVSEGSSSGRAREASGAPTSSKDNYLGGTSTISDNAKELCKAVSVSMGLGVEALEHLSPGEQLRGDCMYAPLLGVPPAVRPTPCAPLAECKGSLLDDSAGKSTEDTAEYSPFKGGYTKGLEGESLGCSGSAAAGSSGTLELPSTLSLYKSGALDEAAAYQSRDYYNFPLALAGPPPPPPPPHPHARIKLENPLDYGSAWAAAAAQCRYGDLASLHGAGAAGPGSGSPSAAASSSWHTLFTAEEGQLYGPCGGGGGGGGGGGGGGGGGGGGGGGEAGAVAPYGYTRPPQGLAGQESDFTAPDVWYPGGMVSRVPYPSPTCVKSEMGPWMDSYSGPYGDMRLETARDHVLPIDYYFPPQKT
T1 sequence (Q92624 1-585 partner): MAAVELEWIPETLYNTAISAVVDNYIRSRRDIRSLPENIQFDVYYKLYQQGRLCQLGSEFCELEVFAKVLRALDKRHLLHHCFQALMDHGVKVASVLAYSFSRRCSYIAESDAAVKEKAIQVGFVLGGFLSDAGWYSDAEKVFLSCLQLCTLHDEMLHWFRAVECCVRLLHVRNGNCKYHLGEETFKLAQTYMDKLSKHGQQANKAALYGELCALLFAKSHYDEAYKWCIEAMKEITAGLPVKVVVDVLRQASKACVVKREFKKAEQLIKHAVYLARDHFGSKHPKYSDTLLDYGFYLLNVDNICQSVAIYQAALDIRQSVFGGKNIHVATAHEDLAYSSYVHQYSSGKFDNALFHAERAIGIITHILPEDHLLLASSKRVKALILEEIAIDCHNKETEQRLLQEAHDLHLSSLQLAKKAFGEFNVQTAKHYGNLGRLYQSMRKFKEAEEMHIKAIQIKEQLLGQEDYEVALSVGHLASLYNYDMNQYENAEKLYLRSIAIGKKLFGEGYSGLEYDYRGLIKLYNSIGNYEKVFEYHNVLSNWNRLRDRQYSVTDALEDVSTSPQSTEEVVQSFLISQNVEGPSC
Procedure: H1299 and COS-1 cells were maintained in Dulbecco's modified Eagle's medium (DMEM) (Life Technologies, Inc.) supplemented with 10% heat inactivated fetal bovine serum (FBS). LNCap cells were maintained in RPMI 1640 supplemented with […]. All media contain 100 units penicillin, 100 μg/ml streptomycin and 2 mM L-glutamine. Cells were seeded to a density of 50-60% confluency for transfection. In transfections where H1299 and COS-1 cells were used, the calcium phosphate precipitation method was used as described (Pan H J, et al. 1999. Endocrine 11:321-327) unless otherwise noted. […] In other reporter gene assays, where ligand treatment was required, cell culture media were changed to DMEM containing 10% charcoal-dextran-stripped FBS (CD-FBS) 2 h before transfection. After 16-18 h transfection, cells were treated with medium containing either vehicle or ligands for another 20-24 h and then cells were harvested. With LNCap cells transfection, the cells were treated with fresh RPMI 1640 containing 10% CD-FBS before transfection with SuperFect performed according to the manufacturer's protocol (Qiagen). After transfection, cells were allowed to recover in fresh RPMI 1640 containing 10% CD-FBS for 8-12 h, and then treated with either vehicle or ligands for another 20-24 h before harvesting. Each experiment was repeated at least three times.

Sequence of AR (P10275 with tags, fused parts or gaps DEL79-80/DUP473-473): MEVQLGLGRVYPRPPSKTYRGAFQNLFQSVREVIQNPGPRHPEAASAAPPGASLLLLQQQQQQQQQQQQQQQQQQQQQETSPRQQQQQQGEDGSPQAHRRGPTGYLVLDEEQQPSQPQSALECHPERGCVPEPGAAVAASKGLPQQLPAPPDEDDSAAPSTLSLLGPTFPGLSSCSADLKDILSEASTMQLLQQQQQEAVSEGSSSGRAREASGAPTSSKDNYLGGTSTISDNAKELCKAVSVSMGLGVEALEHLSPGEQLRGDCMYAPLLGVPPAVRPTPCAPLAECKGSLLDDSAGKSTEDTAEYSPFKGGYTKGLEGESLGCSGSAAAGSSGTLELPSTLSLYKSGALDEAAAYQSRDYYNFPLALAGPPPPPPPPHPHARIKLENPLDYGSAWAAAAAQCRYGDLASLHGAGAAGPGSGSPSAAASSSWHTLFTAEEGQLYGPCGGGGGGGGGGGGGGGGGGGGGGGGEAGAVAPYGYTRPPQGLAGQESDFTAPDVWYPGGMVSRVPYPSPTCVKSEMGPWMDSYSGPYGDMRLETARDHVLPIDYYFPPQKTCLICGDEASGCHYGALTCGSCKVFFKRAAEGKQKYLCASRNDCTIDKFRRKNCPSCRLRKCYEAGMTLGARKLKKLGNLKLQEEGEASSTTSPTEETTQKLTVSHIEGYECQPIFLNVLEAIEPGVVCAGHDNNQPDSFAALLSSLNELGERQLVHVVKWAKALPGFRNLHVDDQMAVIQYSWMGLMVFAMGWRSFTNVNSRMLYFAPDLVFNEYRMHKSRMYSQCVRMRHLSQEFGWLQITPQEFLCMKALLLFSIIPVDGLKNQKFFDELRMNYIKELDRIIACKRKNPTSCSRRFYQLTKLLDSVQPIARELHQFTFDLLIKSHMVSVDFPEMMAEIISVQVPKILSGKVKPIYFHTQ

B1: ARA67: AR N-terminal interacting protein of 585 amino acids (SEQ ID NO:1), matches PAT1; functions as a repressor of AR (protein)
chain: T1 sequence (Q92624 1-585 partner)
AR (ARN, ARDBD, ARLBD)
  interaction with AR LBD: moderately
  interaction with ARDBD: very weakly
  interaction with ARN: most strongly
AR (ARN, ARDBD, ARLBD); [35S]methionine-labeled ARA67
  interaction with GST-ARN fragment ARN1-140: positive interaction
AR (ARN, ARDBD, ARLBD); listed as full length ARA67
  interaction with ARN: strong interaction
AR (ARN, ARDBD, ARLBD); presence and absence of 10 μM DHT
  interaction with AR, DHT dependence: DHT independent manner
AR
  AR protein level: slightly increased
ARN
  reporter luciferase activity (association with ARN): highly induced
